The values below come from patent publication US20220184120A1.

The experiment addresses full-length MUC1 expressed on HCT-116 cells (cleavage resistant single cell clone) (Homo sapiens (Human)) (UniProt P15941). The experiment can be described thus: flow cytometry, HCT-MUC1-41TR cells (FIG. 36D). (A flow cytometer gives signals particle by particle.)

“VU4H5 commercially available mouse monoclonal anti-MUC1 tandem repeat antibody” registered a percent positive cells of 95%.
